These are literature values, as cited in article PMC2589311.

Read-outs that look alike come from different tables or passages of the source.

Series [1] addresses IL-1 receptor (synovial cells) (Homo sapiens) (UniProt P14778).
Series [2] shares this target. The source holds these as a separate data set.
Series [3] has as its target second IL-1 receptor, 68 kDa (RAJI cells) (Homo sapiens) (UniProt P27930).
UniProt P27930, sequence (P27930 14-398): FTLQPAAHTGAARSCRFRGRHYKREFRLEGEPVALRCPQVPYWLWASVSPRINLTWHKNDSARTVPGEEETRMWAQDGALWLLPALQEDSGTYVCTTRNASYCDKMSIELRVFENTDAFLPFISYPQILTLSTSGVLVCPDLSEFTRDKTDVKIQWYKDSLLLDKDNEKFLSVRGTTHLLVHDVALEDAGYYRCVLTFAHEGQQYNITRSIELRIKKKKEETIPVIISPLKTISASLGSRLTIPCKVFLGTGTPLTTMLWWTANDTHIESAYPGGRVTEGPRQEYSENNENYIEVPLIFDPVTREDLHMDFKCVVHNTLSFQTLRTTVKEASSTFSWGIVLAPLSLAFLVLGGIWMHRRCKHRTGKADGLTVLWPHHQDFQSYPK

UniProt P14778, sequence (P14778 18-569): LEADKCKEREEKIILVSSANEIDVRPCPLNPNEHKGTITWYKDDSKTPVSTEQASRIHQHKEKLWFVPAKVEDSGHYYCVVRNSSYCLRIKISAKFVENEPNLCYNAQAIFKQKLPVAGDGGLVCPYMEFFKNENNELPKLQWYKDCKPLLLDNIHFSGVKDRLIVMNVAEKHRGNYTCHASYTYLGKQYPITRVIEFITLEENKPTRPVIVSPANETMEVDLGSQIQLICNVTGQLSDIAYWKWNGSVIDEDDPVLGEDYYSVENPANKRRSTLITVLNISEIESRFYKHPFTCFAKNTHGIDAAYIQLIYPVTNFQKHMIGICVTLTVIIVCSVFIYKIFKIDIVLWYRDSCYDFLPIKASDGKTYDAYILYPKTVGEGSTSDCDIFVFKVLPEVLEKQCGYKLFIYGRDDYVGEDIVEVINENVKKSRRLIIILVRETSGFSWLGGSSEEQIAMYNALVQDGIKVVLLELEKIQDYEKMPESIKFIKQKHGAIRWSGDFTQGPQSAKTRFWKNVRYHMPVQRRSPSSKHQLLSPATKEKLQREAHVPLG

For the substance IL-1alpha (from UniProt P01583), the Kd in series [1] was 0.066 nM. Regarding IL-1beta (from UniProt P01584), the results for the Kd in series [2] and in series [3] were 0.004 nM and 2.2 nM, respectively.

As a reminder, the Kd is a measure of binding affinity in units of concentration.
